Patent US20260274985A1 (MYTHIC THERAPEUTICS, published 2026)
Each block holds one binder with its values, some of them ahead of it.

What was measured:
[1] = target: T1, Human TROP2 Protein, His Tag (Acro Biosystems) (human, UniProt P09758 27-274); experiment: Octet BLI, IgG on anti-human Fc sensor; 3 = No binding
T1 construct: Bought antigen used at 50 nM in the Octet screen; also called TACSTD2; not shown: His tag
T1 sequence (looked up): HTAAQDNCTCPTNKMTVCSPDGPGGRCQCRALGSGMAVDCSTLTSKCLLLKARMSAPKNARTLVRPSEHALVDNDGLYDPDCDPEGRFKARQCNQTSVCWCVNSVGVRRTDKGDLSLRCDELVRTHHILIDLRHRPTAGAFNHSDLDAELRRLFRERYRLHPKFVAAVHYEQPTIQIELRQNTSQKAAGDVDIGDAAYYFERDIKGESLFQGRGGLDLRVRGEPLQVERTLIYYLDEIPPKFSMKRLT

[2] = target: T2, Human TROP2 Protein, His Tag (Acro Biosystems) (human, UniProt P09758 27-274); experiment: BLI (Octet), antibody on anti-human Fc sensor, 50 nM human TROP2-His, dissociation at pH 7.4 or 5.4; grade 1 = pH dependent
T2 construct: Bought protein; also called TACSTD2; not shown: His tag
T2 sequence: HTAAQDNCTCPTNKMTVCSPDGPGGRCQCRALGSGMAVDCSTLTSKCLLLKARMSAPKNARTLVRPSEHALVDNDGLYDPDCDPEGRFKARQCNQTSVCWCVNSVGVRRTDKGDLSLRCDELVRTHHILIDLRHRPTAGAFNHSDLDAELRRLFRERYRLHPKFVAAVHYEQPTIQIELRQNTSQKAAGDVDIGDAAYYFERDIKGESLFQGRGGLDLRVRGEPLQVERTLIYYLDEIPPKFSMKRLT

[3] = target: T3, Human TROP2 Protein, His Tag (Acro Biosystems) (human, UniProt P09758 27-274); experiment: Octet BLI, IgG on anti-human Fc sensor; 3 = No binding
T3 construct: not shown: His tag
T3 sequence (looked up): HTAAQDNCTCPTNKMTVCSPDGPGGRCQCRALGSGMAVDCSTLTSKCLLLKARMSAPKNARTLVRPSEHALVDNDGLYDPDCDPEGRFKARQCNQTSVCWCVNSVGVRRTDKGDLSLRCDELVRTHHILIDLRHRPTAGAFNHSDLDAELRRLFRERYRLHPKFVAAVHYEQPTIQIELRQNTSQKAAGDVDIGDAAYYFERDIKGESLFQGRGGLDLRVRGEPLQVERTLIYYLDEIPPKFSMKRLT

[4] = target: T4, Human TROP2 Protein, His Tag (Acro Biosystems) (human, UniProt P09758 27-274); experiment: BLI (Octet), IgG on anti-human Fc sensor, 50 nM TROP2-His; 1 = pH dependent
T4 construct: also called TACSTD2; not shown: His tag
T4 sequence (looked up): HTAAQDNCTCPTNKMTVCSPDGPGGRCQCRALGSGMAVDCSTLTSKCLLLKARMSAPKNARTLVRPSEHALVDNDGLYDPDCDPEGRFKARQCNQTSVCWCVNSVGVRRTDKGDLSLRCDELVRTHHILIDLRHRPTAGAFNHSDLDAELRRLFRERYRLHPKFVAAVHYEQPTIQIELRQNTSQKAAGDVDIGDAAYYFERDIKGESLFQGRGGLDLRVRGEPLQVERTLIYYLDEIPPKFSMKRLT
Method: After allowing for four days of protein expression, cell culture supernatants were collected, quantified by SDS-PAGE analysis (DNS), and the pH dependence of the variant was evaluated using biolayer interferometry (BLI) on an Octet RED 96e instrument. Briefly, cell culture supernatants were diluted based on qualitative expression level of the variant determined by visual examination of SDS-PAGE gels, 5 μL of cell culture supernatant was diluted into 195 μL of 1×PBST, pH 7.4 for high expressors, 25 μL of cell culture supernatant was diluted into 175 μL of 1×PBST, pH 7.4 for medium expressors and 100 μL of cell culture supernatant was diluted into 100 μL of 1×PBST, pH 7.4 for low expressors for loading onto the sensor tips. The resulting diluted supernatants were then captured on an anti-human Fc sensor (Forte Bio). A baseline was established using 1×PBST (50 mM Potassium Phosphate Buffer+150 mM NaCl+0.05% Tween 20) pH 7.4, and the sensor was associated with 50 nM of TROP2 (Human TROP2 Protein, His Tag, Acro Biosystems) in 1×PBST pH 7.4 for 120 sec to generate an association curve. In the dissociation phase, the antibody-antigen complex on the sensor was exposed to 1×PBST pH 7.4 or pH 5.4, for 300 sec. […]

- binding result [1]: no binding (tested: 50 nM)
B1: MYT11717 (antibody, V domains shown)
VH: QVQLQESGPGLVKPSETLSLTCTVSGGSISSYGVHWIRQPPGKGLEWIGVIHTSGVTDYNSALMGRVTISVDTSKNQFSLKLSSVTAADTAVYYCARDGDYDRYTMDYWGQGTLVTVSS
VL: DIVMTQSPDSLAVSLGERATINCRASKSVSTSGYSYMHWYQQKPGQPPKLLIYLASNLESGVPDRFSGSGSGTDFTLTISSLQAEDVAVYYCQHSRELPYTFGQGTKLEIK
notes: hu7E6SVG variant, His at HCV position 52 (H2 03); screened as IgG in Expi293 supernatant

- binding result [2]: binds
B2: MYT12470 (hu7E6SVG variant, LCV substitutions at 93, 94, 97 (Ala at 94)) (antibody, V domains shown)
VH: QVQLQESGPGLVKPSETLSLTCTVSGGSISSYGVHWIRQPPGKGLEWIGVIWTSGVTDYNSALMGRVTISVDTSKNQFSLKLSSVTAADTAVYYCARDGDYDRYTMDYWGQGTLVTVSS
VL: DIVMTQSPDSLAVSLGERATINCRASKSVSTSGYSYMHWYQQKPGQPPKLLIYLASNLESGVPDRFSGSGSGTDFTLTISSLQAEDVAVYYCHASRHLPYTFGQGTKLEIK
notes: Full IgG in Expi293 supernatant

- binding result [3]: no binding (tested: 50 nM TROP2)
B3: MYT12395 (antibody, V domains shown)
VH: QVQLVQSGAEVKKPGASVKVSCKASGYTFTTAGMQWVRQAPGQGLEWMGWINTHSGVPKYAEDFKGRVTISADTSTSTAYLQLSSLKSEDTAVYYCARSGFGSSYWYFDVWGQGTLVTVSS
VL: DIQMTQSPSSLSASVGDRVTITCKASQDVSTAVAWYQQKPGKAPKLLIYSAHYRYTGVPSRFSGSGSGTDFTLTISSLQPEDFAVYYCHQHYITPLTFGQGTKLEIK
notes: datopotamab VL 52, 89 substituted

- binding result [4]: binds
B4: MYT13385 (antibody, V domains shown)
VH: QVQLQQSGSELKKPGASVKVSCKASGYTFTNYGMNWVKQAPGQGLKWMGWINTYTGEPTYTHDFKGRFAFSLDTSVSTAYLQISSLKADDTAVYFCARGGFGSSYWYFDVWGQGSLVTVSS
VL: DIQLTQSPSSLSASVGDRVSITCKASQDVHIAVAWYQQKPGKAPKLLIYSAHYRYTGVPDRFSGSGSGTDFTLTISSLQPEDFAVYYCQQHYITPLTFGAGTKVEIK
notes: Sacituzumab HC-LC pairing variant
